Experimental data taken from patent US12398194.

Experiments:
CD19 (human) = CD19 (human) (UniProt P15391); assay: SPR (Biacore T200), scFv-Fc captured on an anti-IgG CM5 chip, interaction partner injected, 1:1 Langmuir fit
CD22 (human) = CD22 (human) (UniProt P20273); assay: as above

CD19 (human), sequence (P15391 21-278 limits assumed): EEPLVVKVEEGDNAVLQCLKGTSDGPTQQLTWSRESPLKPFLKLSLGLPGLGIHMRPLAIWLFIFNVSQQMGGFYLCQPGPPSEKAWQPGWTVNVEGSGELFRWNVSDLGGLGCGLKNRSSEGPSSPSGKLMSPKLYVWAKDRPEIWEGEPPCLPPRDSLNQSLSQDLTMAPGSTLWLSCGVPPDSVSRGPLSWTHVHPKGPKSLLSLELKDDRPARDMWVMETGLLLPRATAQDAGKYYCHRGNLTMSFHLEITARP

B1: murine CD19ALAb scFv (scFv, part only; not given: VH-VL linker and Fc, not shown: another chain or arm of the molecule; a dimerising Fc or GST; small tags and cut ends)
scFv: QVQLQQSGAELVRPGSSVKISCKASGYAFSSYWMNWVKQRPGQGLEWIGQIWPGDGDTNYNGKFKGKATLTADESSSTAYMQLSSLASEDSAVYFCARRETTTVGRYYYAMDYWGQGTTVTVSSDIQLTQSPASLAVSLGQRATISCKASQSVDYDGDSYLNWYQQIPGQPPKLLIYDASNLVSGIPPRFSGSGSGTDFTLNIHPVEKVDAATYHCQQSTEDPWTFGGGTKLEIK
CD19 (human)
  koff: 0.000328 s⁻¹
  kon: 178000 M⁻¹ s⁻¹

B2: humanized CD22ALAb scFv (scFv, part only; not given: VH-VL linker and Fc, not shown: another chain or arm of the molecule; a dimerising Fc or GST; small tags and cut ends)
scFv: EVQLVESGAEVKKPGSSVKVSCKASGYTFTNYWINWVRQAPGQGLEWIGNIYPSDSFTNYNQKFKDRATLTVDKSTSTAYLELRNLRSDDTAVYYCTRDTQERSWYFDVWGQGTLVTVSSDIVMTQSPATLSVSPGERATLSCRSSQSLVHSNGNTYLHWYQQKPGQAPRLLIYKVSNRFSGVPARFSGSGSGVEFTLTISSLQSEDFAVYYCSQSTHVPWTFGQGTRLEIK
CD22 (human)
  Kd: 32 nM
  koff: 0.00226 s⁻¹
  kon: 68300 M⁻¹ s⁻¹
